From the DeepSol protein solubility set

Assay: soluble on expression in E. coli; label from the status in PepcDB or PDB records

Sequence | soluble on expression in E. coli
MQEYSVEVALVHPDDMVNLFGSNERHLKLIEENLGVVIHARTERVQILGETEEAIELARLTIKALLVLVGRGMIVNTSDVVTALSMAQNGNIDKFVALYEEEIIKDSYGKPIRVKTLGQKVYVDSVKSHDIVFGIGPAGTGKTFLAVTLAITALKRGQVKRIILTRPAVEAGESLGFLPGDLKEKVDPYLRPVYDALYQILGKEQTSRLMEREIIEIAPLAYMRGRTLDDAFVILDEAQNTTIMQMKMFLTRLGFNSKMIVNGDISQIDLPKNVKSGLVDASEKLKDIKQIDFVYLSAKDVVRHPVVAEIINAYEESTDVR | not soluble
MVFDAIVVTDLQGFIIDWNKGSETLYGYSKEQAIGQPVNMLHVPGDTEHITSEVISAVENQGKWTGEIRMLHKDGHIGWIESMCVPIYGENYQMVGALGINRDITKRKKELEHHHHHH | not soluble
MNKFNEEYRKMEEDAQRRHQELNRQSLENAAEMKDSRRKILNKEFEGAILIKQVEHETKQVEKKRENLEKGHKKEMRNMSADFRKKKNEIEMEQLKLAIGNRVENHNQRKVEEQLRNEQERFLKKLLKYHTTTGANRDLFGEFQKVLKPFNEMIGELQDIKLRCITDGDADNGYIEYEVDYVGQLRRSVYTEIDEFREYIADEKNISKEIGIACAIYVKKLERIADCKELNLLCDQLQAAIEGKNGEIIKTCEIFIDKFTQKFESISNGSTSDFHRLRLKAPERDIPSSSTLTIEN | not soluble
MVNPEEQPISILFLGIDDNDGRRKKGQDAEHSRSDAMILTTFNQSKHQIRMLSIPRDTISYIPKVGYYDKITHAHAYGGPIAAMDSVEATMNVPVDYYVRVNMKAFVEAVNELGGIYYDVPYDLNEPNTDDTGKIKIKKGYQKLNGDEALAVARTRHHDSDLKRGQRQMELIKILFQKAQEVDSIDKLDNVIQIVGKNAKHNLTNSEIKALAKMYLTNDVEIKTAQLKGKDDMLNGIYYYHPSVESIQKYANLLRKDLELSPINDKNDFLDQRVINHYGSLIPLTPLDSSLLRKEQNDTTDKDKTSNENNDSTNNSDSSNQQQPATDQNLNQNQGGTQQAPQASNNQNGVVNLEHHHHHH | soluble
SDLPRHIAVLCDGNRRWARSAGYDDVSYGYRMGAAKIAEMLRWCHEAGIELATVYLLSTENLQRDPDELAALIEIITDVVEEICAPANHWSVRTVGDLGLIGEEPARRLRGAVESTPEVASFHVNVAVGYGGRREIVDAVRALLSKELANGATAEELVDAVTVEGISENLYTSGQPDPDLVIRTSGEQRLSGFLLWQSAYSEMWFTEAHWPAFRHVDFLRALRDYSAR | soluble
MSQQSLISPSLQDILCKIQFNDTQFETTKKITRKRSNNFNPDRKKRNRITFDANQIDEMEKVFAENQYPDTMSREKLANKIQLHEERVQIWFQNRRAKYRREQKQTGHPYEPPSITKNPTGEKEKTQDCTTLTSASSPGPSNLSNDTLVSIEMAPKIGTKSVNLFPDQALSNTLNMIINANKNASENNYESEDQFNAESAKLLMLTLSNLFSLQNETTCE | not soluble
MQIDFNSDMGESFGAWTIGDGVDTELMAFISSANIATGFHAGDPSTMRRTIEQAKRLGVAIGAHPGFRDLVGFGRRHINAPAQELVDDMLYQLGALRELARVQGVPLQHFKPHGALYMHLARDEEAARLLVENLQRLEPDLLLYCMPGSVICNVAQELGQPVVREFYADRAYDLSGSIVFTRNVRAHDPAEVAARVIRACQQGLVRTVEGDDLAIQFDSICLHSDTPGALALAQATRQALDGAGIEVRTPRLEHHHHHH | not soluble
MRPPLIERYRNLLPVSEKTPVISLLEGSTPLIPLKGPEEARKKGIRLYAKYEGLNPTGSFKDRGMTLAVSKAVEGGAQAVACASTGNTAASAAAYAARAGILAIVVLPAGYVALGKVAQSLVHGARIVQVEGNFDDALRLTQKLTEAFPVALVNSVNPHRLEGQKTLAFEVVDELGDAPHYHALPVGNAGNITAHWMGYKAYHALGKAKRLPRMLGFQAAGAAPLVLGRPVERPETLATAIRIGNPASWQGAVRAKEESGGVIEAVTDEEILFAYRYLAREEGIFCEPASAAAMAGVFKLLREGRLEPESTVVLTLTGHGLKDPATAERVAELPPPVPARLEAVAAAAGLL | soluble
GPDSEMCKDYRVLPRIGYLCPKDLKPVCGDDGQTYNNPCMLCHENLIRQTNTHIRSTGKCEESSTPGTTAASMPPSDE | soluble
MLEAPLLSICIPAYNRPNWLQRGLESIAVGEGSDIEIVITDDSDTDQGQAIASEVLKNWSGSWCYEHHQQPLGMAQNWNRAIQWATGQYVMVLHDDDFFLPQGLGLLVNKLRQLGSSSPVLLFGVRVVDAQERVVKRQGFRQDKLLPPHDALIRLFSDSSFVRFPAMVIRRDLFTEVGYFNPDWREPCDLEMWMRLFARYGVYCCREATVAYRVHGQALTMGSFHGETVNILLRLFGELEKLNILTTRDIEFCKGLFFHQYILAGAWRQLRRRRWREFKQVMGLFDLPELKSLSCPVKWRFLRGLFSLTLEHHHHHH | not soluble
MKTFEELCQENYSRIYKYIFSMTGSKESTEDLIQEVFIAAYEKGEAFLRHEKPAAFLYKTARNMTVTYLKNLKRQRISAMEYLSENIPQDDTDLCETLLMELDRKIDETAYTGQVIGNLNTNQHNLYRQRYVEGKSIKEIASEEGVSETAMRMRLVRLRKEIQDIVKKLKLGEK | not soluble
MAHHHHHHMNIEDDENKEKKETCLSYIKKINMSEIINDEAIGKRAEYLWNLALSAVYINVKLSMKYITLIKKITKNNLLFDNICCHYCNLIYIPFYNCKITHSPNQGKATYTCLLCKRKKKINLQHLSKHKNIYPLKHSDKHKPSTSNLSNVNFFLINEIDNYEIKKNNVPLNKDDTSNTENQLITKQENKNEDILKDVSCADMQKEEHIINQDNIINQDNIINQDNIINQDNIINQDNIINQDNIINQDNIINQDNIINQDNIINQDNIINKNDMYQNLSYLFRIDYGINKDDTQKGNEIYDKSIVNESEKCKSVHIENNKNDDNKNMNSESKNIKNERKRKSQNNNIAQNKNQGFPNVNMNDGFLNFNKSKKKKGKSILDIL | not soluble
MKQFVVISGKGGTGKTSVTAGLAAVGKDMVLADCDVDAADLHLVLAPEIRERHDFISGVVASIEPEACISCGLCTTHCRYGAIPQGYAPQVAPEHCEGCGVCAHVCPTGAARLSDRRCGEWYVSDTRFGPMVHAALGIGEENSGKLVSTVRTRARELAEARDASVVLIDGSPGVGCPVIASLAGADAALAVTEPTVSALHDLERVHALARHFDVRMAVLLNKADIHPGMAERIIGYCTTHDLPLVGRFGFSPLFVQAQLEGRTLPEQDSGEWRQRFNGVWNQLLALVLEHHHHHH | not soluble
SDVNECLTIPEACKGEMKCINHYGGYLCLPRSAAVINDLHGEGPPPPVPPAQHPNPCPPGYEPDDQDSCVD | soluble
MAHHHHHHSLENKGTNLTPEQALDRLEELYEQSVNALREAIADYVDNGTLPDPHARLNGLFVYPSLSVSWDGATPNPPKTRAFGRFTHPGCYTTTVTRPALFRAYLLEQLNLVYHDYGAHIAVEASHHEIPYPYVIDGSALTLDRSMSAGLTRHFPTTELAQIGDETADGLFHPGEFYPLSHFDARRVDFSLARLRHYTGTPVEHFQPFVLFTNYTRYVDEFVRWGCSQILDPDSPYIALSCAGGIWITAETEAPEEAISDLAWKKHQMPAWHLVTADGQGITLVNIGVGPSNAKTICDHLAVLRPDVWLMIGHCGGLRESQAIGDYVLAHAYLRDDHVLDAVLPPDIPIPSIAEVQRALYDATKAVSGMPGEEVKQRLRTGTVVTTDDRNWELRYSASALRFNLSRAVAIDMESATIAAQGYRFRVPYGTLLCVSDKPLHGEIKLPGQANRFYEGAISEHLQIGIRAIDLLRAEGDRLHSRKEG | soluble
MTQVIIDGDACPVTNSIIELTKGTGIFVTVVRSFSHFSTVIQPEHVNIIYVDDGPDAVDYRIVKLVHSDDLVVTQDYGLASLLLNKAKIVMHHKGFIYNQENINTLLEQRHASAQFRKSGGRTKGPAAFTEEDVSKFESIFSNLIHKYFLETEDLEHHHHHH | soluble
GMEKLNFGIPEWAFEFHGHKCPYMPMGYRAGSYALKIAGLEKEKDHRTYLLSEMSPEDMNGCFNDGAQAATGCTYGKGLFSLLGYGKLALILYRPGRKAIRVHVRNSFMDELSTRASDFFRYRKQGYEPSEIPAGAIDPVLEWISSLEDEEIFEYREIDGFTFEPVKKNGAKVRCDVCGEYTYEADAKLLNGKPVCKPDYYGKK | soluble
MAHHHHHHMLRCSCARRRGVYHNAPSVYPFVKPFHDTPYDQDRGRHDSVGQRYRKNSWPEWMDNGADGTGYGIGLHRTHPLSRLRGNLKRSPSHVPRVLGMMIQGVWHKSGVKLYFRGGKPPNPSVHPYLTGEPCPLYGWKVTDESVIRQFNMPSIDGTNFRYKPYVALQERKIMGVQVPSDSVSLASGRTTESKPLAKRLFFWR | not soluble
SLIHIAIVEDENKDRELLKEYLDRFQAEKGEPLFVHVYPDGEEFLESFSSGKFDILLLDIHMQYMNGMATAQEIRKSDENVLIIFITNLVQYAVQGYSVRAFDFIVKPVEYSVFAQKLYRATQRLNRTIHSCVRFKVLDQIVNLQLSGILYFEIVARKLFIYTDTEIYRCNDTLHSIEEKLNDGHFFRCHAGYLVNVAYVRSVGKDYAMVGSARIPVSKHRRKAFLDAIGNYLGSKEG | not soluble
MGSDKIHHHHHHMIKVLHLFTTLDSGGVESFLFNYYSHIDRKKIQFDFIVPGKEQGFLEDKMKELGAKVYHVPLLRKKPLHQFLSLARIIKKGDYDIVHCHGYKSAIGLILSKIIGCKIRIIHSHMAYVTENSFQKVLRKLVTILVKILATHWFACGEDSAKWLYGEKAYKDGKIEIIFNAIDLKKYQFLSDVREKCRRELDVSNKFVLGNIARLSDQKNQSYLFNVLKELILIKPNVILLLVGNGEDEQKLKQKALELNLTPYVLFLGRRTDISDLLSAMDVFLLPSKYEGLPVSLVEAQASGLQILSSDTVTQEVDVTKNISYLPINEESVLLWKDKVLSLTSEECNRFEINNSMTDGLYDICYQASKLLNRYQEMCVIKEI | not soluble
MIRVLLADDHALFRQGLKSLLEAEGDFRVVGEAKDGWEAMRHALETKPDVILMDIQMPGLDGVQATQAILKEWPQAKVIMLTMYRQDAYVFEAVKAGARGYLLKDVDARELVDAIRRVHAGEVLLDAELAGHIIQDFRAKKEASQPLHAELSEREVQILRLVAQGYTNQEIAAELQLSEKTVRNRLSEIFQKLHLNNRTQAALYAIREGLARPEE | soluble
MGSDKIHHHHHHMYIRPFDPWKSKLCTCPFKYTLNPYTGCDHACVYCYITSYIPNAFKVRPKKNLLIQVERELRKFDKRYIIAMSYSSDPYPTIEKELGITRKVLELFRRYDVRCLILTKSDIFERDIDILKELRCAVGVTVTTIDERKAKLLEPNAPLPKDRIRALKKAKKEGIPVYARVDPIIPFYTWEDFRKTVDALSFVSHITVSTLKLRPDIKARMRAKFPELMKKLEPLYTERYEGYAYLRKDMRFRILNEARKIIEGKGITFGSCREGYYSYPTCDGSHLVP | not soluble
MSLKKPALKYCGIRSLKDLQLAAESQADYLGFIFAESKRKVSPEDVKKWLNQVRVEKQVAGVFVNESIETMSRIAKSLKLDVIQLHGDEKPADVAALRKLTGCEIWKALHHQDNTTQEIARFKDNVDGFVIDSSVKGSRGGTGVAFSWDCVPEYQQAAIGKRCFIAGGVNPDSITRLLKWQPEGIDLASGIEKNGQKDQNLMRLLEERMNRYVSISEEGHHHHHH | soluble
